Test results: the nanobody polyreactivity screen of Harvey et al. (2022)

experiment: yeast display, Sf9 membrane polyspecificity reagent, FACS + sequencing; frameworks hold sequencing errors
In short: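 Polyreactivity labels are assigned by the sorting gate from which each nanobody was recovered. The gates were low and high (top ~1%), set on anti-HA fluorescence for expression and streptavidin fluorescence for reagent binding. Before sorting, galactose-induced (36–48 hours) yeast display cells were stained for 1 hour at 4 °C with 10% biotinylated, detergent-solubilized Sf9 membrane reagent.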

Row | Sequence | polyreactivity (PSR sort gate)
1 | QVQLVESGGGLVQAGGSLRLSCAASGITFRYYAMGWYRQAPGKERELVATINWSGGTTHYADSVKGRFTISRENAKNTVYLQMNSLKPEDTAVYYCAADPWQYKLGWPPFTYDYWGQGTQVTVSS | high polyreactivity
2 | QVQLVESGGGLVQAGGSLRLSCAASGITFRYYAMGWYRQAPGKERELVAVISTSGGSTYYADSVKGRFTISRDNAKNTVFLQMNSLKPEDTAVYYCAVVWPYYERYYYWGQGTQVTVSS | high polyreactivity
3 | QVQLVESGGGLVQAGGSLRLSCAASGITFRYYTMGWYRQAPGKERELVAAITTGGSTNYADSVKGRFTISRDNAKNTVYLQMNSLKPEDTAVYYCAATYKYITRGYLYDYWGQGTQVTVSS | high polyreactivity
4 | QVQLVESGGGLVQAGGSLRLSCAASGITFSEYAMGLYRQAPGKERELVAAITSGGNTYYADSVKGRFTISRDNAKNTVYLQMNSLKPEDTAVYYCAATFSSAFAYYYWGQGTQVTVSS | low polyreactivity
5 | QVQLVESGGGLVQAGGSLRLSCAASGITFSFYALGWYRHAPGKERELVAAISRGGASTYYADSVKGRFTISRDNAKNTVYLQMNSLKPEDSAVYYCAALSVDERYDYWGQGTQVTVSS | low polyreactivity
6 | QVQLVESGGGLVQAGGSLRLSCAASGITFSFYAMGWYRQAPGKERELVAAISWNGDSTYYADSVKGRFTISRDNAKNTVYLQMNSLKPEDTAVYYCNAEFVAWYYYEDQDGDYWGQGTQVTVSS | high polyreactivity
7 | QVQLVESGGGLVQAGGSLRLSCAASGITFSGNAMGWYRQAPGKARELVATISQSGGRTYYADSVNGRFTISRDNAKHTVYLQMNSLKPEDTAVYYCARRRMRYTDRGYYYWGQGTQVTVSS | high polyreactivity
8 | QVQLVESGGGLVQAGGSLRLSCAASGITFSGYDMGWYRQAPGKERELVADITISTGSTYYADSVKGRFTISRDNANNTVYLQMNSLKPEDTAVYYCAADWQQDRTVVLPSWGHAYDSWGQGTQVTVSS | low polyreactivity
9 | QVQLVESGGGLVQAGGSLRLSCAASGITFSKYAMGWFRHAPGKERELFASITWSGTSTYYADSVKGRFTISRDNAKNTVYLQMKSLKPEDTAVYYCAADGWGTFWRAQNGYGYEHDYWGKGTQVTVSS | low polyreactivity
10 | QVQLVESGGGLVQAGGSLRLSCAASGITFSLYAMGWYRQAPGKERELVAAIDWSSGSTYYADSVKGRFTISRDNAKNTVYLQMNSLKPEDTAVYYCAAEYVHHASGDFSTLYYYWGQGTQVTVSS | low polyreactivity
11 | QVQLVESGGGLVQAGGSLRLSCAASGITFSPYTMGCYRQAPGKERELVAAITDGAITYYADSVKGRFTISRDNAKNTVYLQMNSLKPEDTAVYYCAAAAWGTDPYSTDYATYDYWGQGTQVTVSS | low polyreactivity
12 | QVQLVESGGGLVQAGGSLRLSCAASGITFSRKVMGWFRQAPGKERELVAAISRSGGRTYYADSVKGRFTISRDTAKNTVYLQMNSLKPEDTAVYYCNRDIGGTSVLDDYWGQGTQVTVSS | low polyreactivity
13 | QVQLVESGGGLVQAGGSLRLSCAASGITFSRNAMGWYRQAPGKERELVATITSGGSTNYADSVKGRFTISRDNAKNTVYLQMNSLKPEDTAGYYCNAVWNTFISGRSYDYWGQGTQVTVSS | low polyreactivity
14 | QVQLVESGGGLVQAGGSLRLSCAASGITFSRNAMGWYRQAPGKERELVATITSGGSTNYADSVKGRFTISRDNAKNTVYLQMNSLKPEDTAVYYCNAVWNTLISGRSYDYWGQGTQVTVSS | low polyreactivity
15 | QVQLVESGGGLVQAGGSLRLSCAASGITFSRNAMGWYRQAPGKERELVAVISTRGGRTYYADSVKGRFTISRDNAKNTVYLQMISLKPEDTAVYYCAASPDPYWRRMDYWGQGTQVTVSS | high polyreactivity
16 | QVQLVESGGGLVQAGGSLRLSCAASGITFSRNVMGWYRQAPGKERELVAAISRSGGRTYYADSVKGRFTISRDNAKNTVYLQMNSLKPEDTAVYDCNRDIGGTSVLDDYWGQGTQVTVSS | low polyreactivity
17 | QVQLVESGGGLVQAGGSLRLSCAASGITFSRNVMGWYRQAPGKERELVAAISRSGGTTTYADSVKGRFTISRDNAKNTVYLQMNSLKPEDTAVYYCNVYDYPTYDYWGQGTQVSVSS | low polyreactivity
18 | QVQLVESGGGLVQAGGSLRLSCAASGITFSRYAMGWYRQAPGKERELVAAITVSGGTTYYADSVKGRFTISRDNAKNTVYLQMNSLKPEDTAVYYCAAVRRKTAGGLEDYWGQGTQVTVSS | high polyreactivity
19 | QVQLVESGGGLVQAGGSLRLSCAASGITFSRYAMGWYRQAPVKERELVAAITWDGGRTYYADSVKGRFTISRANAKNTVYLQMNSRKPEDTADYYCSAGSAWWYYWGQGTQVTVSS | high polyreactivity
20 | QVQLVESGGGLVQAGGSLRLSCAASGITFSTYAMGWYIQAPGKERELVAAITKSGGSTYYADSVKGRFTISRDNAKNTVYLQMNRLKPEDTAVYYCAARFPHRHYLLYTYDYWGQGTQVTVSS | low polyreactivity

Row | Sequence | polyreactivity (PSR sort gate)
21 | QVQLVESGGGLVQAGGSLRLSCAASGITFSVYAMGWYRQAPGKERELVAAINYDSGSTYYADSVKGRFTISRDNAKNTVYLQMNSLKPEDTAVYYCATDGVNPFYAFDYWGQGTQVTVSS | low polyreactivity
22 | QVQLVESGGGLVQAGGSLRLSCAASGITFSVYTMGWYIQAPGKERELVAAIDSDGITNYADSVKGRFTISRDNEKNNVYLQMNSLKPEDTAVSYCAKQTGRADGVSGFDYWGQGTQVTVSS | low polyreactivity
23 | QVQLVESGGGLVQAGGSLRLSCAASGITFSYNAMGWYRQAAGKERELVAAITWSGDSTYYADSVKGRFTISRDNAKNTVYLQMNSLKPEDTAVYYCNAVPSQHDEFDYWGQGTQVTVSS | low polyreactivity
24 | QVQLVESGGGLVQAGGSLRLSCAASGITFSYNAMGWYRQAPGKERQLVAAITWSGDSTYYADSVKGRFTISRDNAKNTVYLQMNSLKREDTAVYYCNARYLRLRYPYTDEYNYWGQGTQVTVSS | low polyreactivity
25 | QVQLVESGGGLVQAGGSLRLSCAASGITFSYNVMGWYRQAPGKERELVAAISDGGSTYYADSVKGRFTISRDNAKNTVYLLMNSLKPEDTAVYDCAKGYPYTYSQQVIYDYYYWGQGTQVTVSS | low polyreactivity
26 | QVQLVESGGGLVQAGGSLRLSCAASGITFSYNVMGWYRQAPGKERELVAAISDGGSTYYADSVKGRFTISRDNAKNTVYLQMNSLKPEDTAVYYCAADSPVDYLYALYLYVRDDYWGQGTQVTVSS | low polyreactivity
27 | QVQLVESGGGLVQAGGSLRLSCAASGITFTAYAMGWYRHAPGKERELVATINSTGITNYADSVKGRFTISRDNAKNTVYLQMNSLKPEDTAVYYCAADLLDNSSYDGMDYWGQGTQVTVSS | low polyreactivity
28 | QVQLVESGGGLVQAGGSLRLSCAASGITFTAYAMGWYRQAPGKERELVATINSTGITNYADSVKGRFTISRDNAKNTFYLQMNCLKAEDTAVSYCGADVLDISSYDGMDYWGKGTQVTVSS | low polyreactivity
29 | QVQLVESGGGLVQAGGSLRLSCAASGITFTAYDMGWYRQAPWKEREFVAAISTIGGSTNYADSVKGRFTISRDNAKNTVYLQMNSLKPEDTAVYYCFAWVYQFGYWGQGTQVTVSS | low polyreactivity
30 | QVQLVESGGGLVQAGGSLRLSCAASGITFTEYAMGWYRQAPGKERELVAAITGSGTSTYYADSVKGRFTISRDNAKNTVYLQMNSLKPEDTAVYYCAARTRGTAYNYWGQGTQVTVSS | high polyreactivity
31 | QVQLVESGGGLVQAGGSLRLSCAASGITFTEYAMGWYRQAPGKERELVATISYGGGITYYADSVKGRFTISRDNAKNTVYLQMNSLKPEDTAVYYCAADGLSQVQRGMDYWGQGTQVNVSS | low polyreactivity
32 | QVQLVESGGGLVQAGGSLRLSCAASGITFTGYDMGWYRQAPGIERELVADISNGSSTDYADSVKGRFTISRDNAKKTVYLQMNSLNPEDTAVYYCAVDIDNWSEYDYWGQGTQVTVSS | low polyreactivity
33 | QVQLVESGGGLVQAGGSLRLSCAASGITFTGYDMGWYRQAPGIERELVADISNGSSTDYADSVKGRFTISRDNAKNTVYFQMISLKPEDTAVYYCAVDIDNWSEYDYWGHGTQVTVSS | low polyreactivity
34 | QVQLVESGGGLVQAGGSLRLSCAASGITFTGYSMGWYRQAPGKERELVAVISEKGGSTYADSVKGRFTISRDNAKNTVYLQMNSLKPEDTAVYYCAARLWWPYSTAWAKMDYWGQGTQVTVSS | low polyreactivity
35 | QVQLVESGGGLVQAGGSLRLSCAASGITFTINAMGWYRQAPGKERELVAVIDVSGGSTDYADSVKGRFTISRDNAKNTVYLQMNSLKPEDTAVYYCAADEYDVYYYAYREYYWGQGTQVTVSS | low polyreactivity
36 | QVQLVESGGGLVQAGGSLRLSCAASGITFTLYAMGWYRQAPGKERELVASISWSGGSTYYADSVKGRFTISRDIAKNTVYLQMNSLKPEDTAVYYCNAVYARKYYYSHGYDYWGQGTQVTVSS | high polyreactivity
37 | QVQLVESGGGLVQAGGSLRLSCAASGITFTLYAMGWYRQAPGKERELVASISWSGGSTYYADSVKGRFTISRDNAKNTVYLQMNSLKPEDTAVYYCNAVYARKYYYSHGYDYWGQGTQVTVSS | high polyreactivity
38 | QVQLVESGGGLVQAGGSLRLSCAASGITFTPYAMGWYRQAPGKERELVAAISWRGGSTYYADSVKGRFTISRDNAKNTVYLQMNSLKPEDTAVYYCAKDGRGYGRYSRYYTGDYWGQGTQVTVST | low polyreactivity
39 | QVQLVESGGGLVQAGGSLRLSCAASGITFTRNAMGWYRQAPGKERELVAAISRRSGSTYYADSVKGRFTISRDNAKNTVYLQMNSLKPEDTAVYYCAATYSVHFVRYGYWGQGTQVTVSS | high polyreactivity
40 | QVQLVESGGGLVQAGGSLRLSCAASGITFTRYTKGWYRQAPGKERELVAAIRGSGGSTYYADSVKGRFTISRDNAKNTVYLEMNSLKAEDTAVYFCAADKYLYGRLTRNFHYYYWGLGTQVTVSS | low polyreactivity
